# Measured values from article PMC9482448 (Nature, 2021).
# Biological target: human SMCT1 (monocarboxylate transporter of the SGLT family) (Homo sapiens (Human)., UniProt Q8N695)
# Assay: cryo-EM structure
# human SMCT1 (monocarboxylate transporter of the SGLT family), sequence (Q8N695 whole entry): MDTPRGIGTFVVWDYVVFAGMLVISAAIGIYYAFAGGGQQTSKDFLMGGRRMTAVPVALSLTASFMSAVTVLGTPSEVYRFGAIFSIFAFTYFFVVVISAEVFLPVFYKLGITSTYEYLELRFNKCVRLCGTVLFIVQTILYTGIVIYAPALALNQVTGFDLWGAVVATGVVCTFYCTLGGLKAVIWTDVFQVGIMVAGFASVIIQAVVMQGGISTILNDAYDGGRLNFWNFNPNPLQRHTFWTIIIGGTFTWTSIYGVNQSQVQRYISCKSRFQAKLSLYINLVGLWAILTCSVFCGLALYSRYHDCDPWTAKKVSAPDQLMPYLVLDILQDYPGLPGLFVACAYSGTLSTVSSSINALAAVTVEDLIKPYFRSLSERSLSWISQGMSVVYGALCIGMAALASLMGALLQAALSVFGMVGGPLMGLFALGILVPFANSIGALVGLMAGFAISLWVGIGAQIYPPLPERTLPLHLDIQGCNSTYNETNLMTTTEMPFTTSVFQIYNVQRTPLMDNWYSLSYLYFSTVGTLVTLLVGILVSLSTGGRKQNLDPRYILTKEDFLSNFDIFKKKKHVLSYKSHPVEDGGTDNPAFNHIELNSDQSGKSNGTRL
binder,measurement,value
nanobody Nb2 (binds SMCT1) (VHH) VHH: QVQLQESGGGLVQAGGSLRLSCAASGNISTRAGMGWYRQAPGKEREFVASINWGAITNYADSVKGRFTISRDNAKNTVYLQMNSLKPEDTAVYYCAVEYKYGPQRSDTYYYWGQGTQVTVSS,binding result,binds
